B1: Inactive serine/threonine-protein kinase TEX14 (Mus musculus), Q7M6U3 (parent)
chain: MSRGAPFPVPCPVLLGTFTDDSLEAQLHEYAKQGNCVKLKKILKKGVCVDAVNTQGQSALFVAALLGHVKLVDVLVDYGSDPNHRCFDGSTPVHAAAFSGNQWILSKLLTAGGDLRLHDEKGRNPQAWALTAGKDRSTQMVEFMQRCTSHMKAIIQGFSYDLLKKIDSPQRLIGSPPWFGSLIQGSPNSSPNRQLKPGIISAQNIYSFGFGKFYLTSGMQLTYPGSLPVIGEKEVVQADDEPTFSFFSGPYMVMTNLVWNRSRVTVKELNLPTRPHCSRLRLADLLIAEQEHSSNLRHPNLLQLMAVCLSRDLEKIRLVYERITVGTLFSVLHERRSQFPVLHMEVIVHLLLQVADALIYLHSRGFIHRSLSSYAVHIVSAGEARLTNLEYLTESQDSGAHRNVTRMPLPTQLYNWAAPEVVLQKAATVKSDIYSFSVIIQEILTDSIPWNGLDGSLVKETIALGNYLEADVRLPEPYYDIVKSGIHAKQKNRTMNLQDIRYILKNDLKEFIGAQKTQPTESPRGQSYEPHPDVNICLGLTSEYQKDPPDLDIKELKEMGSQPHSPTDHSFLTVKPTLAPQTLDSSLSAQKPDNANVPSPPAACLAEEVRSPTASQDSLCSFEINEIYSGCLTLGTDKEEECLGTAASPEGDRPNQGDELPSLEEELDKMERELHCFCEEDKSISEVDTDLLFEDDDWQSDSLGSLNLPEPTREAKGKTSSWSKTDEYVSKCVLNLKISQVMMQQSAEWLRKLEQEVEELEWAQKELDSQCSSLRDASLKFANAKFQPAVGPPSLAYLPPVMQLPGLKQPENGGTWLTLARSPGNEREFQEGHFSKKPEKLSACGWKPFTQVSEESRGDCSELNNQLPTLRGPGKQSTGEQLPSTQEARESLEKNTNQNSRSMASVSSEIYATKSRNNEDNGEAHLKWRLAVKEMAEKAVSGQLLLPPWNPQSSAPFESKVENESTPLPRPPIRGPESTEWQHILEYQRENDEPKGNTKFGKMDNSDCDKNKHSRWTGLQRFTGIRYPFFRNHEQPEQNEASQASCDTSVGTEKFYSTSSPIGDDFERFQDSFAQRQGYVEENFQIREIFEKNAEILTKPQFQAIQCAEDKQDETLGETPKELKEKNTSLTDIQDLSSITYDQDGYFKETSYKTPKLKHAPTSASTPLSPESISSAASHYEDCLENTTFHVKRGSTFCWNGQEAMRTLSAKFTTVRERAKSLESLLASSKSLPAKLTDSKRLCMLSETGSSNVSAAFVTSTHATKRKSLPRELAEATSQQHLDELPPPAQELLDEIEQLKQQQVSSLASHENTARDLSVTNKDKKHLEEQETNSSKDSSFLSSREIQDLEDTERAHSSLDEDLERFLQSPEENTALLDPTKGSTREKKNKDQDVVEQKRKKKESIKPERRESDSSLGTLEEDELKPCFWKRLGWSEPSRIIVLDQSDLSD
partner: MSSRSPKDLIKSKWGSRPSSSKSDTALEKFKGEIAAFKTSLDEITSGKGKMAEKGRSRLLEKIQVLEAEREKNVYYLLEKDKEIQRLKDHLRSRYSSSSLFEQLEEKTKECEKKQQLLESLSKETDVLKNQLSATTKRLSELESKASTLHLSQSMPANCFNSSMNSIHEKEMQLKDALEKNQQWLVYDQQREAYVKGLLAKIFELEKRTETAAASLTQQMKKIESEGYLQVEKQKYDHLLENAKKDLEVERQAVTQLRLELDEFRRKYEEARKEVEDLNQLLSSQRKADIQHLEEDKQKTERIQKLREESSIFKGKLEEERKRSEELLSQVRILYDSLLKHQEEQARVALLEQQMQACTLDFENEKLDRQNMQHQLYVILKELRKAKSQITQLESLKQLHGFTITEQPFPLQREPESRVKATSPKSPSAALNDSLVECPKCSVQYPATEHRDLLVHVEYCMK

Variants of: B1
Details: with cep55_mouse Cep55, Q8BT07

Variant	effect of a mutation on the interaction
P792A	disrupting interaction
Y797A	disrupting interaction
P793A	decreasing interaction

Reference: IntAct's records for PubMed 20176808
